Test results published in the DeepSol protein solubility set.

assay: soluble on expression in E. coli; label from the status in PepcDB or PDB records

Sequence | soluble on expression in E. coli
AQSVPWGISRVQAPAAHNRGLTGSGVKVAVLDTGISTHPDLNIRGGASFVPGEPSTQDGNGHGTHVAGTIAALNNSIGVLGVAPNAELYAVKVLGASGSGSVSSIAQGLEWAGNNGMHVANLSLGSPSPSATLEQAVNSATSRGVLVVAASGNSGAGSISYPARYANAMAVGATDQNNNRASFSQYGAGLDIVAPGVNVQSTYPGSTYASLNGTSMATPHVAGAAALVKQKNPSWSNVQIRNHLKNTATSLGSTNLYGSGLVNAEAATR | soluble
ARGVKGHVRVLANTTAMTEFMPAVLARYLAAHPDVNVELRERLSYLVVRAVADGSADIGVVAGCAPDQKLQFIPYRKDRLVVVTPAGHRLAAEESVAFADTLADDYVGLSEWSAIHPFLVQAAASLGRTFKFRVEVGNFEAVCRMIESG | not soluble
ARQENPCGPCSERRKHLFVQDPQTCKCSCKNTDSRCKARQLELNERTCRCDKPRR | soluble
ARRLYVGNIPFGITEEAMMDFFNAQMRLGGLTQAPGNPVLAVQINQDKNFAFLEFRSVDETTQAMAFDGIIFQGQSLKIRRPHDYQPLPG | soluble
ARVDQTPQTITKETGESLTINCVLRDSNCALSSTYWYRKKSGSTNEESISKGGRYVETVNSGSKSFSLRINDLTVEDSGTYRCKPESRYGSYDAECAALNDQYGGGTVVTVNAAAHHHHHH | soluble
ARVNAQTGAPDILTSLDEKSVSYDTVMDKYWLSQYVIARETYDWYTLQKDYETVGMLSSPSEGQSYASQFQGDKALDKQYGSNVRTSVTIVSIVPNGKGIGTVRFAKTTKRTNETGDGETTHWIATIGYQYVNPSLMSESARLTNPLGFNVTSYRVDPEMGVVQ | soluble
ASGSSFASTRKLLNRHSLHTVCRSAMCPNLHECWSKGTATFLLLGNVCTRSCRFCAVGTECRPAMPDPEEPSKIAEAVKTMKLRHAVLTSVNRDDLADGGATHWVETIRAIREVNPGVSLECLIPDFSGNEQSLDLVMQELPEVLNHNIETVPSRYAAVRPQALYERSLAVIERAKRQFRLATKSGMMVGMGETEEELEASLHDLRGHGCDMVTIGQYLQPTAAHLPVSRYVTPEEFERYREIALDAGFRHVQSGPFVRSSYHAEAFEPVEK | not soluble
ASLFPPGLHAIYGECRRLYPDQPNPLQVTAIVKYWLGGPDPLDYVSMYRNVGSPSANIPEHWHYISFGLSDLYGDNRVHEFTGTDGPSGFGFELTFRLKRETGESAPPTWPAELMQGLARYVFQSENTFCSGDHVSWHSPLDNSESRIQHMLLTEDPQMQPVQTPFGVVTFLQIVGVCTEELHSAQQWNGQGILELLRTVPIAGGPWLITDMRRGETIFEIDPHLQERVDKGIETD | soluble
ASMTGGQQMGRGSGSEFMENETHYAEAVIDNGAFGTRTIRFETGRLARQAAGSAVAYLDDDTMVLSATTASKNPKDQLDFFPLTVDVEERMYAAGKIPGSFFRREGRPSEDAILTCRLIDRPLRPSFKKGLRNEIQVVATIMALNPDHLYDVVAINAASASTQLAGLPFSGPIGGVRVALIRGQWVAFPTHTELEDAVFDMVVAGRVLEDGDVAIMMVEAEATEKTIQLVKDGAEAPTEEVVAAGLDAAKPFIKVLCKAQADLAAKAAKPTGEFPVFLDYQDDVLEALSAAVRPELSAALTIAGKQDREAELDRVKALAAEKLLPEFEGREKEISAAYRALTKSLVRERVIAEKKRIDGRGVTDIRTLAAEVEAIPRVHGSALFERGETQILGVTTLNMLRMEQQLDTLSPVTRKRYMHNYNFPPYSVGETGRVGSPKRREIGHGALAERAIVPVLPTREEFPYAIRQVSEALGSNGSTSMGSVCASTMSLLNAGVPLKAPVAGIAMGLISQEINGETHYVALTDILGAEDAFGDMDFKVAGTKEFVTALQLDTKLDGIPASVLAAALKQARDARLHILDVMMEAIDTPDEMSPNAPRIITVKIPVDKIGEVIGPKRQMINQIQEDTGAEITIEDDGTIYIGAADGPAAEAARATINGIANPTSPEVGERILGSVVKTTTFGAFVSLLPGKDGLLHISQIRKLAGGKRVENVEDVLGVGQKVQVEIAEIDSRGKLSLIPVIEGEEAASDEKKDDAEQ | soluble
ASPNSPKDNTWIQAASLTWLMDMSSLLYQLISTRIPSFASPNGLHMREQTIDSNTGQIQIDNEHRLLRWDRRPPNDIFLNGFIPRVTNQNLSPVEDTHLLNYLRTNSPSIFVSTTRARYNNLGLEITPWTPHSANNNIIYRYEIFAPGGIDINASFSRNHNPFPNEDEITFPGGIRPEFIRSTYEYHNGEIVRIWINPNFINPSTLNDVSGPSNISKVFWHENHSEGNNMDSKGFILDLDYNQDFDMFAPNGEIPNNNLLNNNSLNVIQNSEYQIKNKKDRNIVVTLDSDYGGSPVESYKNFGFENQKWNIKYDSKKNAYKIYNRETPTLLLSWNSNSSNGEQVIRGYTESGSNNQYWTIEKNVNGFYKFRNLSDPSKILDLKDGNTLNKTPLVVSSENSSSSQEWLIEKTNYQTVKDGTYQVSSKLNENKVIEQISTNKVHIFSNSDKENQVWNLIYNPILKAYKIKSLKYPNYSLAWDSNNTRTIVAATGDYNDQYWLIERNEDNTYIIRNYENRKIVLDLSNGSTTDGNGLLGFEFHGGINQRWIIKPFSFNSIQDGIYQFMTVINQDLIADLTTNNYTIATKTNNYSSNQKWTVTYNDKKRAYKIRNLQHAHLSLAWDSNHSDKIFGATGDYDDQYWIPILQTDGSFIFRNYKNPNKIFGTNGQPINDIPLKAQDVTGQNNQKWYLRHLNSSNNFTGYFNISSKKNFNKIITMNSNKTQAVIFDNIGINNQSWKLKYNDNKNAYQIHILDNFLYFQGGHNIVATMRNVTNDDLRSYWYVEYNFNKDGFIIRNAFDTSYVLDVFQGNFANNTPIITYQNYLNDNQLWNFIPSLGVEPR | soluble
ATLDVRGGYRSGSHAYETRLKVSEGWQNGWWASMESNTWNTIHDNKKENAALNDVQVEVNYAIKLDDQWTVRPGMLTHFSSNGTRYGPYVKLSWDATKDLNFGIRYRYDWKAYRQQDLSGDMSRDNVHRWDGYVTYHINSDFTFAWQTTLYSKQNDYRYANHKKWATENAFVLQYHMTPDITPYIEYDYLDRQGVYNGRDNLSENSYRIGVSFKL | soluble
AVANILNRDYNRAQEILNGIKNPDATTYYLMAVVAARTNNLDVVINSLRESISLDSSMMKKAATDLEFAKYANDGGFKSLLRH | not soluble
AVFRHTLLHFFERLQSNDIYYKFHNILFLKCEHTEQNAAVIAIARKHQAIWREKITAVLTEAVENQDLADDLDKETAVIFIKSTLDGLIWRWFSSCERFDLGKTAPRIIGIMMDNLENHPDLRRK | not soluble
AVVATKVGATVMNANPFTLGHRYLIEQALAQCDHLHLFVVEEEASQFCYQERFALVQHGIADLSNITLHPSSQYIISRATFPDYFLKDSHIVDAAYLELDLRLFRQHIAPALAITHRFIGTEPFCPVTAEYNRKMHYWLQQAVMEADAINVVEIERKKVSNQAISASTVRQLFSERKWQQLLSMVPITTFNFLQKIANEP | not soluble
AYSELQMLSPSERQCVETVVNMGYSYECVLRAMKKKGENIEQILDYLFAH | soluble
CLAEGTRIFDPVTGTTHRIEDVVYGRKPIHVVAAAKDGTLHARPVVSWFDQGTRDVIGLRIAGGAIVWATPDHKVLTEYGWRAAGELRKGDRVAVRDVETGELRYSVIREVLPTRRARTFDLEVEELHTLVAEGVVVHN | soluble
CPVNWVEHERSCYWFSRSGKAWADADNYCRLEDAHLVVVTSWEEQKFVQHHIGPVNTWMGLHDQNGPWKWVDGTDYETGFKNWRPEQPDDWYGHGLGGGEDCAHFTDDGRWNDDVCQRPYRWVCETEL | soluble
DALHDQASALFKPIPEQVTELRGQPISEQQRELGKKLFFDPRLSRSHVLSCNTCHNVGTGGADNVPTSVGHGWQKGPRNSPTVFNAVFNAAQFWDGRAKDLGEQAKGPIQNSVEMHSTPQLVEQTLGSIPEYVDAFRKAFPKAGKPVSFDNMALAIEAYEATLVTPDSPFDLYLKGDDKALDAQQKKGLKAFMDSGCSACHNGINLGGQAYFPFGLVKKPDASVLPSGDKGRFAVTKTQSDEYVFRAAPLRNVALTAPYFHSGQVWELKDAVAIMGNAQLGKQLAPDDVENIVAFLHSLSGKQPRVEYPLLPASTETTPRPAE | soluble
